Measurements taken from the supplement of paper PMC9112550, “Optimization of the antimicrobial peptide Bac7 by deep mutational scanning” (BMC Biology, 2022).

System: Escherichia coli TOP10
Test: shrunken log2 fold change of peptide-encoding DNA abundance (4.5 h post-induction vs induction); higher = less antimicrobial activity (less host growth inhibition)
Settings: time post-induction: 4.5 h; library: site-saturation at positions 5, 18, 19, 20
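Further: peptides expressed intracellularly from a pBAD plasmid library in pooled LB shake-flask culture, induced with 0.3% L-arabinose, DNA abundance read by NGS, three biological replicates, DESeq2 with apeglm shrinkage.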

Sequence | shrunken log2 fold change
RRIRSRPPRLPRPRPRPTIQPRP | -0.305
RRIRSRPPRLPRPRPRPTKEPRP | -0.441
RRIRSRPPRLPRPRPRPTMFPRP | -0.0103
RRIRSRPPRLPRPRPRPTMGPRP | -0.238
RRIRSRPPRLPRPRPRPTMSPRP | -0.0133
RRIRSRPPRLPRPRPRPTMTPRP | 0.391
RRIRSRPPRLPRPRPRPTPHPRP | 0.308
RRIRSRPPRLPRPRPRPTQAPRP | 0.0131
RRIRSRPPRLPRPRPRPTQEPRP | 0.342
RRIRSRPPRLPRPRPRPTQTPRP | 1.09
RRIRSRPPRLPRPRPRPTRDPRP | 0.701
RRIRSRPPRLPRPRPRPTSHPRP | -0.0965
RRIRSRPPRLPRPRPRPTSMPRP | -0.187
RRIRSRPPRLPRPRPRPTTGPRP | 0.0655
RRIRSRPPRLPRPRPRPTTYPRP | -0.359
RRIRSRPPRLPRPRPRPTVGPRP | 0.187
RRIRSRPPRLPRPRPRPTVIPRP | -0.0891
RRIRSRPPRLPRPRPRPTWMPRP | 0.0331
RRIRSRPPRLPRPRPRPTYVPRP | -0.098
RRIRSRPPRLPRPRPRPVAFPRP | 0.0876
RRIRSRPPRLPRPRPRPVCHPRP | -0.388
RRIRSRPPRLPRPRPRPVDHPRP | -0.00391
RRIRSRPPRLPRPRPRPVDWPRP | 0.306
RRIRSRPPRLPRPRPRPVEDPRP | -0.0519
RRIRSRPPRLPRPRPRPVEWPRP | 0.31

Sequence | shrunken log2 fold change
RRIRSRPPRLPRPRPRPVEYPRP | -0.553
RRIRSRPPRLPRPRPRPVFMPRP | -0.236
RRIRSRPPRLPRPRPRPVFSPRP | -0.43
RRIRSRPPRLPRPRPRPVHDPRP | -0.0657
RRIRSRPPRLPRPRPRPVHSPRP | 0.139
RRIRSRPPRLPRPRPRPVIIPRP | -0.254
RRIRSRPPRLPRPRPRPVIPPRP | -0.156
RRIRSRPPRLPRPRPRPVIYPRP | -0.226
RRIRSRPPRLPRPRPRPVKAPRP | 0.0824
RRIRSRPPRLPRPRPRPVKFPRP | 0.0903
RRIRSRPPRLPRPRPRPVKLPRP | -0.104
RRIRSRPPRLPRPRPRPVMHPRP | 0.00492
RRIRSRPPRLPRPRPRPVPAPRP | 0.122
RRIRSRPPRLPRPRPRPVPVPRP | 0.362
RRIRSRPPRLPRPRPRPVQMPRP | 0.0426
RRIRSRPPRLPRPRPRPVRAPRP | 0.655
RRIRSRPPRLPRPRPRPVREPRP | 0.723
RRIRSRPPRLPRPRPRPVRFPRP | 0.488
RRIRSRPPRLPRPRPRPVTYPRP | -0.273
RRIRSRPPRLPRPRPRPVVAPRP | 0.608
RRIRSRPPRLPRPRPRPVWFPRP | -0.121
RRIRSRPPRLPRPRPRPVWWPRP | 0.131
RRIRSRPPRLPRPRPRPVYDPRP | -0.227
RRIRSRPPRLPRPRPRPVYNPRP | -0.974
RRIRSRPPRLPRPRPRPWARPRP | 0.0355

Sequence | shrunken log2 fold change
RRIRSRPPRLPRPRPRPWCLPRP | -0.11
RRIRSRPPRLPRPRPRPWCMPRP | -0.781
RRIRSRPPRLPRPRPRPWEDPRP | -0.0124
RRIRSRPPRLPRPRPRPWFFPRP | -0.197
RRIRSRPPRLPRPRPRPWGLPRP | 0.0137
RRIRSRPPRLPRPRPRPWITPRP | -0.305
RRIRSRPPRLPRPRPRPWIVPRP | -0.127
RRIRSRPPRLPRPRPRPWPMPRP | -0.111
RRIRSRPPRLPRPRPRPWQCPRP | -0.19
RRIRSRPPRLPRPRPRPWSGPRP | -0.0339
RRIRSRPPRLPRPRPRPWTWPRP | -0.0804
RRIRSRPPRLPRPRPRPWVEPRP | -0.214
RRIRSRPPRLPRPRPRPWWGPRP | 0.0289
RRIRSRPPRLPRPRPRPWWQPRP | -0.0257
RRIRSRPPRLPRPRPRPWYHPRP | -0.45
RRIRSRPPRLPRPRPRPWYRPRP | -0.119
RRIRSRPPRLPRPRPRPYAQPRP | -0.535
RRIRSRPPRLPRPRPRPYAYPRP | -0.315
RRIRSRPPRLPRPRPRPYCFPRP | -0.544
RRIRSRPPRLPRPRPRPYCKPRP | -0.327
RRIRSRPPRLPRPRPRPYCLPRP | -0.434
RRIRSRPPRLPRPRPRPYCRPRP | -0.512
RRIRSRPPRLPRPRPRPYDEPRP | 0.0261
RRIRSRPPRLPRPRPRPYENPRP | -0.229
RRIRSRPPRLPRPRPRPYGRPRP | -0.151
